One data set deals with E. coli. In words: Inhibition of E. coli proliferation after IPTG induction of antisense clones (growth curves, dilution spotting, score). It counts as cell-based, Escherichia coli. Conditions: IPTG induction (1 mM). The protocol: (§1) To study the effects of transcriptional induction in liquid medium, growth curves were carried out by back diluting cultures 1:200 into fresh media with or without 1 mM IPTG and measuring the OD450 every 30 minutes (min). To study the effects of transcriptional induction on solid medium, 10^2, 10^3, 10^4, 10^5, 10^6, 10^7 and 10^8 fold dilutions of overnight cultures were prepared. Aliquots of from 0.5 to 3 μl of these dilutions were spotted on selective agar plates with or without 1 mM IPTG. After overnight incubation, the plates were compared to assess the sensitivity of the clones to IPTG.
Of the numerous clones tested, some clones were identified as containing a sequence that inhibited E. coli growth after IPTG induction. […]
(§2) Molecule No. EcXA190, encoding a portion of the b3052 gene of Escherichia coli, was either transformed directly into Enterobacter cloacae, Salmonella typhimurium and/or Klebsiella pneumoniae or subcloned into an expression vector functional in these species and the subclones transformed into these organisms. […] After growth in liquid culture, cells were plated at various serial dilutions and a score determined by calculating the log difference in growth for INDUCED vs. UNINDUCED antisense RNA expression as determined by the maximum 10 fold dilution at which a colony was observed. […]

Another data set relates to Salmonella typhimurium. In words: Growth inhibition by induced E. coli antisense RNA in Salmonella typhimurium. Conditions: antisense RNA expression induced with IPTG, serial dilution plating. It counts as cell-based. Also noted: key: +: a positive in Table V below means that at least 10 fold more cells were required to observe a colony on the induced plate than on the non-induced plate; −: If there was no effect of antisense RNA expression in a microorganism, the clone is minus in Table V below. On the procedure: as §1
as §2, with “organisms. Suitable expression vectors are well known in the art.” for “organisms.”

A further data set concerns Enterobacter cloacae. The experiment in a line: Growth inhibition by induced E. coli antisense RNA in Enterobacter cloacae. It counts as cell-based. More on the design: key: +: a positive in Table V below means that at least 10 fold more cells were required to observe a colony on the induced plate than on the non-induced plate; −: If there was no effect of antisense RNA expression in a microorganism, the clone is minus in Table V below. Conditions: antisense RNA expression induced with IPTG, serial dilution plating. On the procedure:
as §1
as §2, with “organisms. Suitable expression vectors are well known in the art.” for “organisms.”

The next data set has as its system Klebsiella pneumoniae. In words: Growth inhibition by induced E. coli antisense RNA in Klebsiella pneumoniae. More on the design: key: +: a positive in Table V below means that at least 10 fold more cells were required to observe a colony on the induced plate than on the non-induced plate; −: If there was no effect of antisense RNA expression in a microorganism, the clone is minus in Table V below. The class given is cell-based. The conditions noted are these: antisense RNA expression induced with IPTG, serial dilution plating. The essentials: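 Overnight cultures were diluted 10^2 to 10^8-fold and spotted on selective plates with or without 1 mM IPTG to induce antisense RNA from transformed E. coli sequences. After overnight growth, induced vs uninduced was scored as the log difference in the highest dilution giving colonies. No effect scores 0 (or minus); a positive score means at least 10-fold more cells were needed.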

B1: EcXA161: antisense clone insert to E. coli sbcD (nucleic acid, listed as Escherichia coli)
antisense: GAAACTCAGTGGAATGGGGGAGCCGCAATAGCGAACATGTTCCATGCCGCCAATAATCTGTGCGCGGTGAATATGCCCGAGCGCGATGTAGTCGGCTGGTGGAAAGTTTTGTGCCGGAAACGCGTCCAGCGTGCCAATATAAATGTCACGCACGGCGTCACTTTTACTGGCCCCCACGGTCGTTAAATGTCCCGTGGCGATGATGGGCAGAGGCTGATCGCCGCGCAGTTTGCAGGCATCGGCATAGTGT
On to B1, for which the “effect of antisense expression on E. coli growth/proliferation” value in the data set with E. coli was “reduction in cell growth”.

B2: EcXA134: antisense clone insert to E. coli sspA (nucleic acid, listed as Escherichia coli)
antisense: TGTTCGATCTCGAAACTTACACCTTTCTCAGCCAGCACAATGCGGACCTGATGGCTATAGATGTCAGTAGGACCGGAAAACAGCGTCATTACCCGAACGTTTGTTGGC
For the molecule B2, in the data set with E. coli, the “effect of antisense expression on E. coli growth/proliferation” value is given as “reduction in cell growth”.

B3: EcXA172: antisense clone insert to E. coli b2345 (nucleic acid, listed as Escherichia coli)
antisense: AAAACTCACCTTTTTTGTTGTTATCCCTCAATTACCACAAGTAAAAGGAGATAAACCGACAATGACCTAGACGTAATTATGTAAAAATACTGATGTTCGTCACTGACTATTTCCGATATTCAGCTGTTGAAAAATCAAAAAACTGGAAAAATAATTTTAAATATCAT
As for B3, in the data set on Salmonella typhimurium, the “Sensitivity of S. typhimurium to antisense nucleic acid (growth inhibition, induced vs. uninduced)” value is reported as “−”. Further, the “Sensitivity of E. cloacae to antisense nucleic acid (growth inhibition, induced vs. uninduced)” value with Enterobacter cloacae is given as “−”. Besides, the “Sensitivity of K. pneumoniae to antisense nucleic acid (growth inhibition, induced vs. uninduced)” value in the data set on Klebsiella pneumoniae was “−”.
